Results: the supplement of paper PMC9233669
Variants at the floor of the assay were thinned out.

Tests used:
biotinyl-Leu-oxazolone = experiment: self-aminoacylation, catalytic enhancement (BLO) (fold over background); higher = more active; k-Seq, kA / k0A0; sequences stand for … in GGGAAUGGAUCCACAUCUACGAAUUC…UUCACUGCAGACUUGACGAAGCUG
Procedure, shortened: (§1)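 Each biotinyl-aminoacyl-oxazolone, at 2–1250 μM, was incubated with mutagenized RNA pools (0.43 μM) carrying a 21-nt variable region. The 50 μL reactions contained HEPES/NaCl/KCl/MgCl2/CaCl2 buffer with 5% acetonitrile at pH 6.9–7.0 and ran for 90 minutes at room temperature. After streptavidin capture, RNA was measured by qPCR in triplicate and by Illumina sequencing, and catalytic enhancement was calculated as median kA over the uncatalyzed rate from a pseudo-first-order fit of per-sequence fraction reacted.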

biotinyl-Met-oxazolone = experiment: self-aminoacylation, catalytic enhancement (BMO) (fold over background); higher = more active; k-Seq, kA / k0A0; sequences stand for … in GGGAAUGGAUCCACAUCUACGAAUUC…UUCACUGCAGACUUGACGAAGCUG
Procedure, shortened: as §1

biotinyl-Trp-oxazolone = experiment: self-aminoacylation, catalytic enhancement (BWO) (fold over background); higher = more active; k-Seq, kA / k0A0; sequences stand for … in GGGAAUGGAUCCACAUCUACGAAUUC…UUCACUGCAGACUUGACGAAGCUG
Procedure, shortened: as §1

biotinyl-Ile-oxazolone = experiment: self-aminoacylation, catalytic enhancement (BIO) (fold over background); higher = more active; k-Seq, kA / k0A0; sequences stand for … in GGGAAUGGAUCCACAUCUACGAAUUC…UUCACUGCAGACUUGACGAAGCUG
Procedure, shortened: as §1

biotinyl-Phe-oxazolone = experiment: self-aminoacylation, catalytic enhancement (BFO) (fold over background); higher = more active; k-Seq, kA / k0A0; sequences stand for … in GGGAAUGGAUCCACAUCUACGAAUUC…UUCACUGCAGACUUGACGAAGCUG
Procedure, shortened: as §1

biotinyl-Val-oxazolone = experiment: self-aminoacylation, catalytic enhancement (BVO) (fold over background); higher = more active; k-Seq, kA / k0A0; sequences stand for … in GGGAAUGGAUCCACAUCUACGAAUUC…UUCACUGCAGACUUGACGAAGCUG
Procedure, shortened: as §1

## CUACUUCAAACAAUCGGAGUG [Fam1A.1 aminoacylation ribozyme variant]
biotinyl-Leu-oxazolone
  self-aminoacylation: 4.96
biotinyl-Met-oxazolone
  self-aminoacylation: 3.25
biotinyl-Trp-oxazolone
  self-aminoacylation: 3.77
biotinyl-Ile-oxazolone
  self-aminoacylation: 3.06
biotinyl-Phe-oxazolone
  self-aminoacylation: 6.37
biotinyl-Val-oxazolone
  self-aminoacylation: 2.52

## CUACUUCAAACAAUCGGCCUA [Fam1A.1 aminoacylation ribozyme variant]
biotinyl-Leu-oxazolone
  self-aminoacylation: 1.25
biotinyl-Met-oxazolone
  self-aminoacylation: 1.39
biotinyl-Trp-oxazolone
  self-aminoacylation: 1.43
biotinyl-Ile-oxazolone
  self-aminoacylation: 1.48
biotinyl-Phe-oxazolone
  self-aminoacylation: 2.51
biotinyl-Val-oxazolone
  self-aminoacylation: 1.16

## CUACUUCAAACAAUCGGGCGG [Fam1A.1 aminoacylation ribozyme variant]
biotinyl-Leu-oxazolone
  self-aminoacylation: 1.31
biotinyl-Met-oxazolone
  self-aminoacylation: 1.53
biotinyl-Trp-oxazolone
  self-aminoacylation: 1.79
biotinyl-Ile-oxazolone
  self-aminoacylation: 1.63
biotinyl-Phe-oxazolone
  self-aminoacylation: 1.71
biotinyl-Val-oxazolone
  self-aminoacylation: 1.4

## CUACUUCAAACAAUCGGUAUC [Fam1A.1 aminoacylation ribozyme variant]
biotinyl-Leu-oxazolone
  self-aminoacylation: 0.554
biotinyl-Met-oxazolone
  self-aminoacylation: 0.541
biotinyl-Trp-oxazolone
  self-aminoacylation: 0.994
biotinyl-Ile-oxazolone
  self-aminoacylation: 0.635
biotinyl-Phe-oxazolone
  self-aminoacylation: 2.2
biotinyl-Val-oxazolone
  self-aminoacylation: 0.594

## CUACUUCAAACAAUCGGUGUA [Fam1A.1 aminoacylation ribozyme variant]
biotinyl-Leu-oxazolone
  self-aminoacylation: 1.12
biotinyl-Met-oxazolone
  self-aminoacylation: 1.05
biotinyl-Trp-oxazolone
  self-aminoacylation: 0.989
biotinyl-Ile-oxazolone
  self-aminoacylation: 0.983
biotinyl-Phe-oxazolone
  self-aminoacylation: 1.33
biotinyl-Val-oxazolone
  self-aminoacylation: 0.946

## CUACUUCAAACAAUCGGUGUC [Fam1A.1 aminoacylation ribozyme variant]
biotinyl-Leu-oxazolone
  self-aminoacylation: 0.635
biotinyl-Met-oxazolone
  self-aminoacylation: 0.654
biotinyl-Trp-oxazolone
  self-aminoacylation: 0.851
biotinyl-Ile-oxazolone
  self-aminoacylation: 0.613
biotinyl-Phe-oxazolone
  self-aminoacylation: 1.18
biotinyl-Val-oxazolone
  self-aminoacylation: 0.546

## CUACUUCAAACAAUCGUUAUG [Fam1A.1 aminoacylation ribozyme variant]
biotinyl-Leu-oxazolone
  self-aminoacylation: 0.523
biotinyl-Met-oxazolone
  self-aminoacylation: 0.48
biotinyl-Trp-oxazolone
  self-aminoacylation: 0.59
biotinyl-Ile-oxazolone
  self-aminoacylation: 0.683
biotinyl-Phe-oxazolone
  self-aminoacylation: 0.899
biotinyl-Val-oxazolone
  self-aminoacylation: 0.627

## CUACUUCAAACAAUCGUUCCG [Fam1A.1 aminoacylation ribozyme variant]
biotinyl-Leu-oxazolone
  self-aminoacylation: 0.786
biotinyl-Met-oxazolone
  self-aminoacylation: 0.516
biotinyl-Trp-oxazolone
  self-aminoacylation: 0.587
biotinyl-Ile-oxazolone
  self-aminoacylation: 0.724
biotinyl-Phe-oxazolone
  self-aminoacylation: 0.562
biotinyl-Val-oxazolone
  self-aminoacylation: 0.66

## CUACUUCAAACAAUCGUUUUG [Fam1A.1 aminoacylation ribozyme variant]
biotinyl-Leu-oxazolone
  self-aminoacylation: 0.568
biotinyl-Met-oxazolone
  self-aminoacylation: 0.603
biotinyl-Trp-oxazolone
  self-aminoacylation: 0.576
biotinyl-Ile-oxazolone
  self-aminoacylation: 0.758
biotinyl-Phe-oxazolone
  self-aminoacylation: 0.98
biotinyl-Val-oxazolone
  self-aminoacylation: 0.669

## CUACUUCAAACAAUCUAUCUG [Fam1A.1 aminoacylation ribozyme variant]
biotinyl-Leu-oxazolone
  self-aminoacylation: 0.485
biotinyl-Met-oxazolone
  self-aminoacylation: 0.461
biotinyl-Trp-oxazolone
  self-aminoacylation: 0.474
biotinyl-Ile-oxazolone
  self-aminoacylation: 0.507
biotinyl-Phe-oxazolone
  self-aminoacylation: 0.981
biotinyl-Val-oxazolone
  self-aminoacylation: 0.579

## CUACUUCAAACAAUCUGUCUU [Fam1A.1 aminoacylation ribozyme variant]
biotinyl-Leu-oxazolone
  self-aminoacylation: 0.576
biotinyl-Met-oxazolone
  self-aminoacylation: 0.559
biotinyl-Trp-oxazolone
  self-aminoacylation: 0.495
biotinyl-Ile-oxazolone
  self-aminoacylation: 0.872
biotinyl-Phe-oxazolone
  self-aminoacylation: 0.839
biotinyl-Val-oxazolone
  self-aminoacylation: 0.74

## CUACUUCAAACAAUCUGUUUG [Fam1A.1 aminoacylation ribozyme variant]
biotinyl-Leu-oxazolone
  self-aminoacylation: 0.76
biotinyl-Met-oxazolone
  self-aminoacylation: 0.713
biotinyl-Trp-oxazolone
  self-aminoacylation: 0.635
biotinyl-Ile-oxazolone
  self-aminoacylation: 0.788
biotinyl-Phe-oxazolone
  self-aminoacylation: 0.912
biotinyl-Val-oxazolone
  self-aminoacylation: 0.838

## CUACUUCAAACAAUGGGUCAG [Fam1A.1 aminoacylation ribozyme variant]
biotinyl-Leu-oxazolone
  self-aminoacylation: 0.651
biotinyl-Met-oxazolone
  self-aminoacylation: 0.648
biotinyl-Trp-oxazolone
  self-aminoacylation: 0.5
biotinyl-Ile-oxazolone
  self-aminoacylation: 0.6
biotinyl-Phe-oxazolone
  self-aminoacylation: 0.92
biotinyl-Val-oxazolone
  self-aminoacylation: 0.589

## CUACUUCAAACAAUGGGUCUA [Fam1A.1 aminoacylation ribozyme variant]
biotinyl-Leu-oxazolone
  self-aminoacylation: 0.638
biotinyl-Met-oxazolone
  self-aminoacylation: 0.611
biotinyl-Trp-oxazolone
  self-aminoacylation: 0.487
biotinyl-Ile-oxazolone
  self-aminoacylation: 0.847
biotinyl-Phe-oxazolone
  self-aminoacylation: 0.65
biotinyl-Val-oxazolone
  self-aminoacylation: 0.756

## CUACUUCAAACAAUGGGUCUC [Fam1A.1 aminoacylation ribozyme variant]
biotinyl-Leu-oxazolone
  self-aminoacylation: 0.569
biotinyl-Met-oxazolone
  self-aminoacylation: 0.609
biotinyl-Trp-oxazolone
  self-aminoacylation: 0.428
biotinyl-Ile-oxazolone
  self-aminoacylation: 0.688
biotinyl-Phe-oxazolone
  self-aminoacylation: 0.715
biotinyl-Val-oxazolone
  self-aminoacylation: 0.658

## CUACUUCAAACAAUUGGACUG [Fam1A.1 aminoacylation ribozyme variant]
biotinyl-Leu-oxazolone
  self-aminoacylation: 0.664
biotinyl-Met-oxazolone
  self-aminoacylation: 0.633
biotinyl-Trp-oxazolone
  self-aminoacylation: 0.443
biotinyl-Ile-oxazolone
  self-aminoacylation: 0.709
biotinyl-Phe-oxazolone
  self-aminoacylation: 0.671
biotinyl-Val-oxazolone
  self-aminoacylation: 0.641

## CUACUUCAAACAAUUGGUUUG [Fam1A.1 aminoacylation ribozyme variant]
biotinyl-Leu-oxazolone
  self-aminoacylation: 0.721
biotinyl-Met-oxazolone
  self-aminoacylation: 0.676
biotinyl-Trp-oxazolone
  self-aminoacylation: 0.708
biotinyl-Ile-oxazolone
  self-aminoacylation: 0.757
biotinyl-Phe-oxazolone
  self-aminoacylation: 0.803
biotinyl-Val-oxazolone
  self-aminoacylation: 0.7

## CUACUUCAAACAAUUGUUCUG [Fam1A.1 aminoacylation ribozyme variant]
biotinyl-Leu-oxazolone
  self-aminoacylation: 0.611
biotinyl-Met-oxazolone
  self-aminoacylation: 0.633
biotinyl-Trp-oxazolone
  self-aminoacylation: 0.367
biotinyl-Ile-oxazolone
  self-aminoacylation: 0.619
biotinyl-Phe-oxazolone
  self-aminoacylation: 0.673
biotinyl-Val-oxazolone
  self-aminoacylation: 0.636

## CUACUUCAAACACGCGGUCUG [Fam1A.1 aminoacylation ribozyme variant]
biotinyl-Leu-oxazolone
  self-aminoacylation: 1.42
biotinyl-Met-oxazolone
  self-aminoacylation: 1.64
biotinyl-Trp-oxazolone
  self-aminoacylation: 1.74
biotinyl-Ile-oxazolone
  self-aminoacylation: 1.61
biotinyl-Phe-oxazolone
  self-aminoacylation: 0.711
biotinyl-Val-oxazolone
  self-aminoacylation: 1.36

## CUACUUCAAACAGUCGCUCUG [Fam1A.1 aminoacylation ribozyme variant]
biotinyl-Leu-oxazolone
  self-aminoacylation: 1.75
biotinyl-Met-oxazolone
  self-aminoacylation: 1.45
biotinyl-Trp-oxazolone
  self-aminoacylation: 1.09
biotinyl-Ile-oxazolone
  self-aminoacylation: 1.12
biotinyl-Phe-oxazolone
  self-aminoacylation: 1.68
biotinyl-Val-oxazolone
  self-aminoacylation: 1.25

## CUACUUCAAACAGUCGGACUG [Fam1A.1 aminoacylation ribozyme variant]
biotinyl-Leu-oxazolone
  self-aminoacylation: 0.564
biotinyl-Met-oxazolone
  self-aminoacylation: 0.697
biotinyl-Trp-oxazolone
  self-aminoacylation: 0.682
biotinyl-Ile-oxazolone
  self-aminoacylation: 0.853
biotinyl-Phe-oxazolone
  self-aminoacylation: 0.77
biotinyl-Val-oxazolone
  self-aminoacylation: 0.826

## CUACUUCAAACAGUCGUUCUG [Fam1A.1 aminoacylation ribozyme variant]
biotinyl-Leu-oxazolone
  self-aminoacylation: 0.475
biotinyl-Met-oxazolone
  self-aminoacylation: 0.589
biotinyl-Trp-oxazolone
  self-aminoacylation: 0.472
biotinyl-Ile-oxazolone
  self-aminoacylation: 0.579
biotinyl-Phe-oxazolone
  self-aminoacylation: 0.701
biotinyl-Val-oxazolone
  self-aminoacylation: 0.611

## CUACUUCAAACAGUCUGUCUG [Fam1A.1 aminoacylation ribozyme variant]
biotinyl-Leu-oxazolone
  self-aminoacylation: 0.568
biotinyl-Met-oxazolone
  self-aminoacylation: 0.515
biotinyl-Trp-oxazolone
  self-aminoacylation: 0.337
biotinyl-Ile-oxazolone
  self-aminoacylation: 0.608
biotinyl-Phe-oxazolone
  self-aminoacylation: 0.663
biotinyl-Val-oxazolone
  self-aminoacylation: 0.597

## CUACUUCAAACAGUUGGUCUG [Fam1A.1 aminoacylation ribozyme variant]
biotinyl-Leu-oxazolone
  self-aminoacylation: 0.79
biotinyl-Met-oxazolone
  self-aminoacylation: 0.538
biotinyl-Trp-oxazolone
  self-aminoacylation: 0.595
biotinyl-Ile-oxazolone
  self-aminoacylation: 0.893
biotinyl-Phe-oxazolone
  self-aminoacylation: 0.982
biotinyl-Val-oxazolone
  self-aminoacylation: 0.736

## CUACUUCAAACAUACGGUCUG [Fam1A.1 aminoacylation ribozyme variant]
biotinyl-Leu-oxazolone
  self-aminoacylation: 0.662
biotinyl-Met-oxazolone
  self-aminoacylation: 0.565
biotinyl-Trp-oxazolone
  self-aminoacylation: 0.556
biotinyl-Ile-oxazolone
  self-aminoacylation: 0.776
biotinyl-Phe-oxazolone
  self-aminoacylation: 0.561
biotinyl-Val-oxazolone
  self-aminoacylation: 0.763

## CUACUUCAAACAUUAGGUCUG [Fam1A.1 aminoacylation ribozyme variant]
biotinyl-Leu-oxazolone
  self-aminoacylation: 0.6
biotinyl-Met-oxazolone
  self-aminoacylation: 0.617
biotinyl-Trp-oxazolone
  self-aminoacylation: 0.535
biotinyl-Ile-oxazolone
  self-aminoacylation: 0.813
biotinyl-Phe-oxazolone
  self-aminoacylation: 0.696
biotinyl-Val-oxazolone
  self-aminoacylation: 0.747
